Assay results taken from patent US20240100162A1.

B1: TCR3 (TCR)
TCR alpha: AQKVTQAQTEISVVEKEDVTLDCVYETRDTTYYLFWYKQPPSGELVFLIRRNSFDEQNEISGRYSWNFQKSTSSFNFTITASQVVDSAVYFCALSVLRMDSSYKLIFGSGTRLLVRPDIQNPDPAVYQLRDSKSSDKSVCLFTDFDSQTNVSQSKDSDVYITDKTVLDMRSMDFKSNSAVAWSNKSDFACANAFNNSIIPEDTFFPSPESSCDVKLVEKSFETDTNLNFQNLSVIGFRILLLKVAGFNLLMTLRLWSS
TCR beta: NAGVTQTPKFRVLKTGQSMTLLCAQDMNHEYMYWYRQDPGMGLRLIHYSVGEGTTAKGEVPDGYNVSRLKKQNFLLGLESAAPSQTSVYFCASSLQGAGQPQHFGDGTRLSILEDLNKVFPPEVAVFEPSEAEISHTQKATLVCLATGFFPDHVELSWWVNGKEVHSGVSTDPQPLKEQPALNDSRYCLSSRLRVSATFWQNPRNHFRCQVQFYGLSENDEWTQDRAKPVTQIVSAEAWGRADCGFTSVSYQQGVLSATILYEILLGKATLYAVLVSALVLMAMVKRKDF
B2: TCR2 (TCR)
TCR alpha: QKEVEQNSGPLSVPEGAIASLNCTYSDRGSQSFFWYRQYSGKSPELIMSIYSNGDKEDGRFTAQLNKASQYVSLLIRDSQPSDSATYLCAVNIPFSNSGGYQKVTFGTGTKLQVIPNIQNPDPAVYQLRDSKSSDKSVCLFTDFDSQTNVSQSKDSDVYITDKTVLDMRSMDFKSNSAVAWSNKSDFACANAFNNSIIPEDTFFPSPESSCDVKLVEKSFETDTNLNFQNLSVIGFRILLLKVAGFNLLMTLRLWSS
TCR beta: NAGVTQTPKFRVLKTGQSMTLLCAQDMNHEYMYWYRQDPGMGLRLIHYSVGEGTTAKGEVPDGYNVSRLKKQNFLLGLESAAPSQTSVYFCASRHPGQYNQPQHFGDGTRLSILEDLNKVFPPEVAVFEPSEAEISHTQKATLVCLATGFFPDHVELSWWVNGKEVHSGVSTDPQPLKEQPALNDSRYCLSSRLRVSATFWQNPRNHFRCQVQFYGLSENDEWTQDRAKPVTQIVSAEAWGRADCGFTSVSYQQGVLSATILYEILLGKATLYAVLVSALVLMAMVKRKDF
B3: TCR1 (TCR)
TCR alpha: KQEVTQIPAALSVPEGENLVLNCSFTDSAIYNLQWFRQDPGKGLTSLLLIQSSQREQTSGRLNASLDKSSGRSTLYIAASQPGDSATYLCAAMKTSYDKVIFGPGTSLSVIPNIQNPDPAVYQLRDSKSSDKSVCLFTDFDSQTNVSQSKDSDVYITDKTVLDMRSMDFKSNSAVAWSNKSDFACANAFNNSIIPEDTFFPSPESSCDVKLVEKSFETDTNLNFQNLSVIGFRILLLKVAGFNLLMTLRLWSS
TCR beta: GEEVAQTPKHLVRGEGQKAKLYCAPIKGHSYVFWYQQVLKNEFKFLISFQNENVFDETGMPKERFSAKCLPNSPCSLEIQATKLEDSAVYFCASSQGQGGYGYTFGSGTRLTVVEDLNKVFPPEVAVFEPSEAEISHTQKATLVCLATGFFPDHVELSWWVNGKEVHSGVSTDPQPLKEQPALNDSRYCLSSRLRVSATFWQNPRNHFRCQVQFYGLSENDEWTQDRAKPVTQIVSAEAWGRADCGFTSVSYQQGVLSATILYEILLGKATLYAVLVSALVLMAMVKRKDF

Molecular target: highly frequent MHC Class I alleles in major US ethnic groups, including 38 HLA-A, 40 HLA-B, and 24 HLA-C alleles, on a panel of 34 BLCLs
Assay: cell-based or functional assay

Row | Binder | cytokine (IFNg, TNFa, IL-12p70) and granzyme B production in co-culture with BLCLs, fold over IL12-RFP control T cells [fold]
1 | B1 | < 4
2 | B2 | < 4
3 | B3 | < 4
